Reference: publication PMC9357639

Columns and labels:
STAT3 [1] = target: STAT3 (UniProt P40763); assay: anti-Flag IP of purified Flag-STAT3 and GST-STAT3; conditions: reference: wild type GST- and Flag-STAT3; sites T622
STAT3 [2] = target: STAT3 (UniProt P40763); assay: anti-Flag co-IP, Flag-STAT3 with HA-STAT3; conditions: reference: wild type STAT3; sites T622
STAT3 [3] = target: STAT3 (UniProt P40763); assay: size exclusion chromatography, fractions immunoblotted; conditions: sites T622

STAT3, sequence (P40763 whole entry, change not shown): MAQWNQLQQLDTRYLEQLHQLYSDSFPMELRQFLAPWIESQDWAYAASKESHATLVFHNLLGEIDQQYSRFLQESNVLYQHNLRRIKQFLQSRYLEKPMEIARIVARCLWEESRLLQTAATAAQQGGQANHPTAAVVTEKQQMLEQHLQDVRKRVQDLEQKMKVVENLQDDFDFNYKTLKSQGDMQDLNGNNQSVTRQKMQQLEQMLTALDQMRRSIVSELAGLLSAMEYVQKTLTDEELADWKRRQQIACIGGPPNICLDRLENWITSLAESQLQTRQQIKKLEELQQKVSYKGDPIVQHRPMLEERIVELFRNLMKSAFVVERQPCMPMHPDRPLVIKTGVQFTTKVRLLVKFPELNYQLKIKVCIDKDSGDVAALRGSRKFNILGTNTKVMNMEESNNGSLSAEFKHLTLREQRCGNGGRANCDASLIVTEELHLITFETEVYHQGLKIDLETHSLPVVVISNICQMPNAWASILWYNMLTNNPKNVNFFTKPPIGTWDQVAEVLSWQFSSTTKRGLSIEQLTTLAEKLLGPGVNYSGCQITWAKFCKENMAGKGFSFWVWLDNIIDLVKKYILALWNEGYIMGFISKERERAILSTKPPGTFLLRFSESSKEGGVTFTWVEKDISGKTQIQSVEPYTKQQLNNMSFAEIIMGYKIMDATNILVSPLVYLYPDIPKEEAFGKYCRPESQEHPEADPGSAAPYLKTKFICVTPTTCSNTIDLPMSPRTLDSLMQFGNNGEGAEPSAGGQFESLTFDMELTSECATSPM

For “STAT3 (from UniProt P40763) T622A GST- and Flag-STAT3”, the “binding against the reference” value (STAT3 [1]) was “stronger”.

For STAT3 (from UniProt P40763) STAT3 T622A, the “binding against the reference” value (STAT3 [2]) was “stronger”.

In the case of “STAT3 (from UniProt P40763) Flag-STAT3 T622A”, the “binding against the reference” value (STAT3 [3]; reference: wild type Flag-STAT3) is reported as “stronger”.

With “STAT3 (from UniProt P40763) His-MST2 treated” the “binding against the reference” value (STAT3 [3]; reference: untreated WT Flag-STAT3) was “same”.
